{
  "source": "IntAct's records for PubMed 16362034",
  "parents": {"B1": {"name": "ETS-like protein pointed (Drosophila melanogaster (Fruit fly)), P51023 (parent)", "chain": "MELAICKTDLSATKFMLPPALPSSAAIGSSSAVASTASHFLDKAAHELFQLNAINGHLFKSPASSHLNSVGSPSILSQLNGIGNSGNHSGQVSTMRLKKNRKVTFLSSLVESKNIFIKEEPIHGCKDLCSLSDISDHEASLEVPTALPPLTPGTNRKVNEVLKASFASWEKEVQKCNITKDPREWTEEHVIYWLNWAKNEFSLVSMNLDPFYKMKGRAMVDLGKEKFLAITPPFTGDILWEHLDILQKDCEKPNEDIVHGNSFESATTASVCGSDHQVANYPNETHANSNNSSINSRLSMDYVTSAGNSDNKNFHRATPHSHNGYNTSNTHDRINNSTPPQQQQSQQPTVNGSGSASSNNNNSMLPPAVQQSNNENNNTSSSNTNNSSNNNNNSGGSNNSNAGSNNNNNNNNNINFMAAAAIFQHHLKEEPGTQNGNIGGYGGGSNSQNDPTDLSSYGLPAHLAAYGGGSGSGPTGGRSSGGGGDESDYHSTISAQDHQSQQSSGGNGSGGASGGSTGNSNGYLDSSSEFYGSYAGRNRFHDGYPPEFTPYDAQSFQSMGPQPTAMDQWGAAHAHQHPAAYMSTLGLDKGLLGGYTTQGGVPCFTGSGPIQLWQFLLELLLDKTCQSFISWTGDGWEFKLTDPDEVARRWGIRKNKPKMNYEKLSRGLRYYYDKNIIHKTAGKRYVYRFVCDLQNLVGHTPEELVAKYDLKIEKKDVD"}},
  "data": [
    {"variants_of": "B1", "conditions": "with erka_drome rl", "values": [
      {"variant": "L228R", "effect of a mutation on the interaction": "decreasing interaction"},
      {"variant": "T151A", "effect of a mutation on the interaction": "disrupting interaction"},
      {"variant": "F234A", "effect of a mutation on the interaction": "decreasing interaction"}
    ]}
  ]
}
